Target: Mal3 (UniProt Q10113)
Assay: Mal3-GST pull-down from yeast lysate
Details: reference: wild-type Klp2-GFP; sites S113,S123

binding against the reference: stronger
Substance: Klp2 (from UniProt Q9US03) Klp2-2A-GFP

From PMC3510020
